Data published in publication PMC9508527, “Two-component carnitine monooxygenase from Escherichia coli: functional characterization, inhibition and mutagenesis of the molecular interface” (Bioscience Reports, 2022).
Substitutions are numbered along the chain they refer to.

Tests used:
Test in all cases: cell-based or functional assay
YeaW variant D135K = target: T1, YeaW variant D135K (E. coli, UniProt P0ABR7 1-374, D135K)
T1 sequence (looked up): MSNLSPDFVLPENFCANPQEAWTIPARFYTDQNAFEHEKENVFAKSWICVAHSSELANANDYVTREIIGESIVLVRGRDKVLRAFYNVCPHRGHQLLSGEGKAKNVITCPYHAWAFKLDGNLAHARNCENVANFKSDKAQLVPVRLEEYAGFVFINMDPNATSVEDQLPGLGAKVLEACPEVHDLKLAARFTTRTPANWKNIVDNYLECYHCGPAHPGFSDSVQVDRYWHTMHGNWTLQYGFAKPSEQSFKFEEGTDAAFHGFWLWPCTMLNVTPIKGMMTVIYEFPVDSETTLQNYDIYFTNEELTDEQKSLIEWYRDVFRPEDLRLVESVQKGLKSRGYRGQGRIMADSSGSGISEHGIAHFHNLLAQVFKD

YeaW variant D135S = target: T2, YeaW variant D135S (E. coli, UniProt P0ABR7 1-374, D135S)
T2 sequence (looked up): T1 sequence (looked up) with K135S

YeaW variant D221S = target: T3, YeaW variant D221S (E. coli, UniProt P0ABR7 1-374, D221S)
T3 sequence (looked up): T1 sequence (looked up) with K135D, D221S

YeaW variant K104S = target: T4, YeaW variant K104S (E. coli, UniProt P0ABR7 1-374, K104S)
T4 sequence (looked up): T1 sequence (looked up) with K104S, K135D

YeaW variant R83Q = target: T5, YeaW variant R83Q (E. coli, UniProt P0ABR7 1-374, R83Q)
T5 sequence (looked up): T1 sequence (looked up) with R83Q, K135D

YeaW variant E330K = target: T6, YeaW variant E330K (E. coli, UniProt P0ABR7 1-374, E330K)
T6 sequence (looked up): T1 sequence (looked up) with K135D, E330K

YeaW variant K117S = target: T7, YeaW variant K117S (E. coli, UniProt P0ABR7 1-374, K117S)
T7 sequence (looked up): T1 sequence (looked up) with K117S, K135D

B1: YeaX, reductase component of carnitine monooxygenase from E. coli (enzyme, UniProt P76254 1-321, looked up)
chain: MSDYQMFEVQVSQVEPLTEQVKRFTLVATDGKPLPAFTGGSHVIVQMSDGDNQYSNAYSLLSSPHDTSCYQIAVRLEENSRGGSRFLHQQVKVGDRLTISTPNNLFALIPSARKHLFIAGGIGITPFLSHMAELQHSDVDWQLHYCSRNPESCAFRDELVQHPQAEKVHLHHSSTGTRLELARLLADIEPGTHVYTCGPEALIEAVRSEAARLDIAADTLHFEQFAIEDKTGDAFTLVLARSGKEFVVPEEMTILQVIENNKAAKVECLCREGVCGTCETAILEGEADHRDQYFSDEERASQQSMLICCSRAKGKRLVLDL
- L-carnitine depletion activity (wild type = 100%) (YeaW variant D135K): 94%
- O2 depletion activity (wild type = 100%) (YeaW variant D135K): 97%
- L-carnitine depletion activity (wild type = 100%) (YeaW variant D135S): 106%
- O2 depletion activity (wild type = 100%) (YeaW variant D135S): 106%
- L-carnitine depletion activity (wild type = 100%) (YeaW variant D221S): 91%
- O2 depletion activity (wild type = 100%) (YeaW variant D221S): 99%
- L-carnitine depletion activity (wild type = 100%) (YeaW variant K104S): 70%
- O2 depletion activity (wild type = 100%) (YeaW variant K104S): 66%
- L-carnitine depletion activity (wild type = 100%) (YeaW variant R83Q): 51%
- O2 depletion activity (wild type = 100%) (YeaW variant R83Q): 59%
- L-carnitine depletion activity (wild type = 100%) (YeaW variant E330K): 55%
- O2 depletion activity (wild type = 100%) (YeaW variant E330K): 67%
- L-carnitine depletion activity (wild type = 100%) (YeaW variant K117S): 122%
- O2 depletion activity (wild type = 100%) (YeaW variant K117S): 109%
